Reference: patent US20110289605A1, “Animal Model for Osteoarthritis and Intervertebral Disc Disease” (THE UNIVERSITY OF ROCHESTER, priority 2008, published 2011)
“Also recorded” adds a separate entry of the source.

Experiments:
[1] = system: IVD cells of Col2a1-CreER^T2;R26R transgenic mice; assay: TM-induced Cre-recombination in intervertebral disc (IVD) cells, X-Gal staining; type: in vivo, mouse; settings: TM to 2-week-old mice, X-Gal staining at 1 month of age; listed as TM
Description: Since chondrocyte-specific β-catenin cAct mice (targeted by Col2a1-Cre transgenic mice) are embryonic lethal, to target intervertebral disc (IVD) cells (Col2a1-positive cell population) in postnatal and adult mice, the Col2a1-CreER^T2;R26R transgenic mice were used. Cre-recombination efficiency in IVD cells was determined in postnatal mice. TM (1 mg/10 g body weight, i.p., ×5 days) was administered into 2-week-old Col2a1-CreER^T2;R26R transgenic mice. Mice were sacrificed at 1 month of age and X-Gal staining was performed.

[2] = system: Col2a1-CreER^T2;R26R mice; assay: TM-induced Cre-recombination in articular and growth plate chondrocytes, X-Gal staining; type: in vivo, mouse; settings: for Cre-recombination efficiency in articular chondrocytes: n=3
Description: Col2a1-CreER^T2 transgenic mice were bred with Rosa26 reporter mice. Methods for mouse genotyping including primer sequences are the same as described previously (Chen et al., Genesis 45:44-50 (2007); Zhu et al., Osteoarthr. Cartilage 16:129-30 (2008)). Tamoxifen (TM, 1 mg/10 g body weight/day, i.p. injection, ×5 days) was administered to the 3- and 6-month-old mice, which were sacrificed 2 months after TM induction at the age of 5 and 8 months. Cre-recombination efficiency was evaluated by X-Gal staining. Nuclear Fast Red staining was performed as a counter stain. β-catenin^fx(Ex3)/fx(Ex3) mice were originally reported by Harada et al (Harada et al., Embo J. 18:5931-42 (1999)). The sequences of PCR primers for genotyping β-catenin^fx(Ex3)/fx(Ex3) mice are: upper primer, 5′-[…]-3′ (SEQ ID NO:10) and lower primer, 5′-[…]-3′ (SEQ ID NO:11). The 412-bp PCR product was detected in wild-type mice, and the 645-bp PCR product was detected in homozygous β-catenin^fx(Ex3)/fx(Ex3) mice. In heterozygous mice (β-catenin^fx(Ex3)/wt), both 412 and 645-bp PCR products were detected. The Col2a1-CreER^T2;β-catenin^fx(Ex3)/w transgenic mice and their Cre-negative littermates were used as controls and were administered TM as the experimental animals for phenotype analysis and cellular function studies.
In the present study, TM-induced Cre-recombination in fully developed growth-plate cartilage was investigated. Thus, creating the possibility of completely separating the role of a specific gene in articular chondrocytes from its potential effect on the growth plate cartilage, which may indirectly affect the function of articular cartilage. Col2a1-CreER^T2 transgenic mice were bred with Rosa26 reporter mice (Soriano, Nat. Genet. 21:70-71 (1999); Mao et al., Proc. Natl. Acad. Sci. USA 96:5037-42 (1999)). TM induction was performed in the 3- and 6-month-old Col2a1-CreER^T2;R26R mice. Mice were then sacrificed 2 months after TM induction at the age of 5 and 8 months and Cre-recombination efficiency was evaluated by X-Gal staining.

[3] = system: RCS chondrogenic cell line; assay: Wnt3a treatment, Runx2 protein expression (Western blot); type: cell-based; settings: 0-48 hours
Description: (§1) To determine the signaling mechanism through which β-catenin regulates Mmp-13 gene expression, in vitro studies using a RCS chondrogenic cell line were performed. […] A putative Runx2 binding site was identified within the 3.4 kb region of the Mmp-13 promoter.

[4] = system: RCS chondrogenic cell line; assay: Wnt3a treatment of RCS cells, Mmp-13 mRNA expression; type: cell-based; settings: 24 and 48 hours
Description: Total RNA extracted from primary articular chondrocytes, articular cartilage tissue, or primary disc cells was prepared using Trizol (Invitrogen; Carlsbad, Calif.) according to the manufacturer's protocol. One microgram total RNA was used to synthesize cDNA by iScripts cDNA Synthesis Kit (Bio-Rad; Hercules, Calif.).
as §1

[5] = system: 3.4 kb mouse Mmp-13 promoter; assay: Mmp-13 promoter activity; type: cell-based
Description: as §1

CC/C(=C(\c1ccccc1)c1ccc(OCCN(C)C)cc1)c1ccccc1 [Tamoxifen]
Cre-recombination efficiency in IVD cells [1]: high efficiency of Cre-recombination in annulus fibrosus cells and endplate cartilage cells but not in nucleus pulposus cells; also recorded: High Cre-recombination efficiency was observed in annulus fibrosus (AF) cells and endplate cartilage (EC) cells but not nucleus pulposus (NP) cells
Cre-recombination efficiency in growth plate chondrocytes ([2]; TM administered in 3- and 6-month-old mice, 2 months after induction): less than 20%
Cre-recombination efficiency in articular chondrocytes ([2]; TM administered in 3-month-old mice, X-Gal staining 2 months after induction (5-month-old)): 84%
Cre-recombination efficiency in articular chondrocytes ([2]; TM administered in 6-month-old mice, X-Gal staining 2 months later (8-month-old)): 76%

B1: Wnt3a: canonical Wnt ligand (protein, UniProt P56704 19-352, looked up)
Protein Wnt-3a: SYPIWWSLAVGPQYSSLGSQPILCASIPGLVPKQLRFCRNYVEIMPSVAEGIKIGIQECQHQFRGRRWNCTTVHDSLAIFGPVLDKATRESAFVHAIASAGVAFAVTRSCAEGTAAICGCSSRHQGSPGKGWKWGGCSEDIEFGGMVSREFADARENRPDARSAMNRHNNEAGRQAIASHMHLKCKCHGLSGSCEVKTCWWSQPDFRAIGDFLKDKYDSASEMVVEKHRESRGWVETLRPRYTYFKVPTERDLVYYEASPNFCEPNPETGSFGTRDRTCNVSSHGIDGCDLLCCGRGHNARAERRREKCRCVFHWCCYVSCQECTRVYDVHTCK
Runx2 protein expression [3]: stimulated Runx2 protein expression in a time-dependent manner
Runx2 protein expression ([3]; listed as Wnt3a2): significantly up regulated
Mmp-13 mRNA expression [4]: significantly increased; also recorded: stimulated Mmp-13 expression
Mmp-13 promoter activity, Runx2 binding site mutated ([5]; mutation of the Runx2 binding site in the promoter): completely blocked the stimulatory effect; also recorded: completely abolished
Mmp-13 promoter activity ([5]; wild-type 3.4 kb promoter): stimulated Mmp-13 promoter activity
